Measurements as given in PMC3046868 (Nature, 2010).

Target: the molecule itself
Test: western blot

B1: HA-tagged wild-type APCDD1 (natural protein)
chain: not shown
modifications: glycosylated
- stoichiometry N: 2
